In the DeepSol protein solubility set:

Experiment: soluble on expression in E. coli; label from the status in PepcDB or PDB records

Sequence	soluble on expression in E. coli
MGSDKIHHHHHHMKIKKYVAESIREAMIMIRRELGENAVILSSRRIKKGGFFGIGGKTYFEVTAAVEEERKKEENTSYRLQEILVKNRQSSNDNIKGEFDEIKRTINEIKQMLVTEKRQTLPEGLSKILYGMEKQEILPEIRYKLIDFLKMKFGDLDPNSNETFKILSEQFVNLVKTNAPDFKNAKVLFVGTTGVGKTTSLAKLAARFKIDEKKRVAILTLDTYRIAAAEQLKIYADIMDIPMKIAYTPKEAEYEMMALKDYDIVLVDTAGRSHQNDLQMSELRALSEAVKPNITFLVLSMNYKLDDMKRIVERFSAVKPTHIILTKMDETSVYGTFVNISEITGLPIAFVTNGQRVPDDIFEANPVELARIVAGEVLNHARSSGTSEKE	not soluble
SASTGSQASDIDEIFGFFNDGEPPTKKPRKLLPSLKTKKPRELVLVIGTGISAAVAPQVPALKSWKGLIQALLDAAIDFDLLEDEESKKFQKCLHEDKNLVHVAHDLIQKLSPRTSNVRSTFFKDCLYEVFDDLESKMEDSGKQLLQSVLHLMENGALVLTTNFDNLLELYAADQGKQLESLDLTDEKKVLEWAQEKRKLSVLHIHGVYTNPSGIVLHPAGYQNVLRNTEVMREIQKLYENKSFLFLGCGWTVDDTTFQALFLEAVKHKSDLEHFMLVRRGDVDEFKKLRENMLDKGIKVISYGDDYADLPEYFKRLTCEISTRGTSAGMVREGQLNGSSAAHSEIRGCST	soluble
MYGEGDFYTIKSKRDYEFYLEADRLALGKNCKKPRLIGDDIWKFQRLLRQAEYYSNCQNSLLHKLYLKYILFRFHRMSIRLGFSIPINVFGPGLCIAHRGTIVVNKGARVGENCRIHACTNIGSGRDNIFLAPKIGNGVYIGPGAKIFGSVEIADNIAIGANSVVNRSFYERGISIAGVPAKKISNKGSDGMVIAATKTVSVPVSQETILEHHHHHH	soluble
MGSDKIHHHHHHMIIELNKSNSENLTKTELEIIKFINENESILPELSIVEIAHETYSSPATVSRAIRKCGLNGFNELRYRLTVKDENDDIQNMGDIINKSFIEAQRVIEQISLTTLINIIKTINKSSKIYILARGLTEYVAKEFSLKLQLLDFNVVFINDPNIMKIKSKSIKKDELIIIFSLNGNTIELVESAQNANLVGAKVITCCCSESAKLIKYSDLYIVGYKHEHISISEYEVSSRLPLYIISRIIIDYMVRYNNSEN	not soluble
MSLRSHFATQKDQWQTYTKEKKIKIGFDATFVPMGYEEKDGSYIGFDIDLANAVFKLYGIDVEWQAIDWDMKETELKNGTIDLIWNGYSVTDERKQSADFTEPYMVNEQVLVTKKSSGIDSVAGMAGKTLGAQAGSSGYDAFNASPKILKDVVANQKVVQYSTFTQALIDLNSGRIDGLLIDRVYANYYLEKSGVLDQYNVMPAGYEGESFAVGARKVDKTLIKKINQGFETLYKNGEFQKISNKWFGEDVATDQVKGKREGHHHHHH	soluble
MGASMTGGQQMGAPITAYAQQTRGLLGCIITSLTGRDKNQVEGEVQIVSTATQTFLATCINGVCWTVYHGAGTRTIASPKGPVIQMYTNVDQDLVGWPAPQGSRSLTPCTCGSSDLYLVTRHADVIPVRRRGDSRGSLLSPRPISYLKGSSGGPLLCPAGHAVGLFRAAVCTRGVAKAVDFIPVENLETTMRSGSHHHHHH	soluble
ELPDFFQGKHFFLYGEFPGDERRKLIRYVTAFNGELEDYMSDRVQFVITAQEWDPSFEEALMDNPSLAFVRPRWIYSCNEKQKLLPHQLYGVVPQA	soluble
MAHHHHHHMWSPSNKRDSLINSDDTFFPFLFHFPGSHPRQMLSSFFASRSRGSWIPAVDISEQDDGYILVADLPEVKKEDLRVYTESSSIICISGNRKHILKQDEHQLLVAERGAGRFERCFDLPTSVDSSKIKASFNDQQLNLSIPKLRNSKSGASNSVTID	soluble
MSTHFDVIVVGAGSMGMAAGYQLAKQGVKTLLVDAFDPPHTNGSHHGDTKIIRHAYGEGREYVPLALRSQELWYELEKETHHKIFTKTGVLVFGPKGESAFVAETMEAAKEHSLTVDLLEGDEINKRWPGITVPENYNAIFEPNSGVLFSENCIRAYRELAEARGAKVLTHTRVEDFDISPDSVKIETANGSYTADKLIVSMGAWNSKLLSKLNLDIPLQPYRQVVGFFESDESKYSNDIDFPGFMVEVPNGIYYGFPSFGGCGLKLGYHTFGQKIDPDTINREFGVYPEDESNLRAFLEEYMPGANGELKRGAVCMYTKTLDEHFIIDLHPEHSNVVIAAGFSGHGFKFSSGVGEVLSQLALTGKTEHDISIFSINRPALKESLQKTTI	soluble
MSLKYSSTTADYLVWSDAMNLIRKLAKDENYKISLLIALGCFTGLRISDILSLRWKQILDADEFTVIEKKTDKVRTIRLNPQLQHHIKECYEHINPVGINAPILISQKGTIFTVQRINIILKEVKKKYRLKIKNFSCHSLRKTFGRQVYNMNSDNAELALVKLMELFNHSSVAITKRYLGLRQEEILQTYDCLSF	not soluble
ASIYKNKKSHEQLSALKGSFCRNQFPGQSEVEHLTKVTGLSTREVRKWFSDRRYHCRNLKGSR	soluble
MNKIETDTLLLPVIGESPAGDDIEYDPVYSEIREARQNDPDYMSQGEWAVSEPRRADWRKVRKLCEVTLRNKSKDLQISCWYVESLTHLYALEGMHCGLEYLAKFISQYWTTCWPSQEEGQEIRYSKLVRLDIDLSEYLKAYPLLEDKEITLSEWYKVLSFEHGASLSEAGKERLIESEGDHSVESFKRAVGKYNPRKVSEQLLQLYDLPDKIDEIESSYFFHTHEDIHHIFAKTRHIISEITELLSRFLPQETLDHSSVSQFLGKPDSRDTRTALPEEKKEFYSALTPSTDKEMSREKAIEQLEKIAIFFRQSEPTSPVPYLLERAIRWSTMTMSEWLEELLKDNDSMEQINRVLKG	not soluble
MGSDKIHHHHHHMTASTVRSPIKVQMRQTGYAARQQRAARMGGMLYQLHELTRNLLAPWVHQAQANAKMFSDPDSLWASLPGAERMAASNELFHRLGKEYEKPAWALDDVEVDGHSLPIIEREVLSKPFCRLLRFKRFSDHVELIGTMKQQPAVLVVAPLSGHHATLLRDTVRTLLRNHKVYVTDWVDARMVPLEAGAFRLEDYIAYIQEFIRHIGAERLHVVSVCQPTVPVLAAVSLMASNDEPTPRSLVMMGGPIDARRSPTQVNNLATENGIEWFQNNLIHTVPFPYPGHGRQVYPGFLQHAGFLSMNPNRHVMSHWDFYTDLVKGDLQDAQAHRQFYDEYNAVLDMPSEYYLDTIRVVFQEFLLPQGKWKVDGQLVMPSAIRNTALLSIEGELDDIAGLGQTEAVHDLCTGIDAAHRRHLVVEGAGHYGIFSGRRWREVVYPQVREFIARYDADPVGSRDPATVTPIRKRGKRA	not soluble
MEALDSSSFTFPQDYEFSYVVNHNCSADGNTYCVQPVKPTTVSRFGTRYIKFDIKALPVGSPIPCKSPKEWRVIKG	not soluble
MEITLNSGFKMPIIGLGVWRMEKEELRDLIIDAIKIGYRHLDCAANYKNEAEVGEALTEAFTTGLVKREDLFITTKLWSSDHGHVIEACKDSLKKLQLDYLDLFLVHIPIATKHTGIGTTDSALGDDGVLDIDTTISLETTWHDMEKLVSMGLVRSIGISNYDVFLTRDCLAYSKIKPAVNQIETHPYFQRDSLVKFCQKHGICVTAHTPLGGATANAEWFGTVSCLDDPVLKDVAEKYKQTVAQIVLRWGIQRNTVVIPKTSKPERLEENFQVFDFQLSKEDMEVIKSMERNYRTHQTAKFWGIELYA	soluble
SLLGGPGIELFRRLVEEYEREHDVPMADIAAALAVQCRGGEAFLMAPDPPLSRRNRDQRRDRPQRPKRRPDLTTYRVAVGKRHKIGPGAIVGAIANEGGLHRSDFGQIRIGPDFSLVELPAKLPRATLKKLAQTRISGVLIDLRPYRPPDAARRHNGGKPRRKHVG	not soluble
MLKILKRIVQDVTAASDLKEALGILVQRINTAINAEAVSVYLIDNKNAEYVLIATEGLNKQAEFRVRIALDCGLIGLIGRREEPINIENAPSHPDFYHNPLIGEDHLNAFLGVPIIQHRKLYGVLVVQQLEQRYFDDAEESFLITLAAQLGGIIAHAEATGELAELTQ	not soluble
MAHHHHHHMKKLHQERGGNPMLAQQARRVLFATSITGQNIDARSIALLLNTAVYFGMESDARVVRECIDFCLKNDKFISLDIMPIVVTACATLQSRDAREVIELQAIKATRNARFLDAKGVTNVISAFSKTGINHEKLFGLLSMRVQTLARVGEFEAAHLVILANAFARLRFREQHVFSAIARRAMSLRERVTVNELVPLINAFSKAGLKDPKLSKRFAGKAMEYVDQMNAEQVALMFQAFAYFGIRYDQLFGVLTNRAVELIDEFNAQYISTTLASFQRIGINNPELFDNLAERALAVVQDHDAKDIALTVTALAHFGLKDEELFKRLASHAASIADQFDPVGLVNTIHAFARTFFLQEDMVVALSERCVYVCRHLDANQVRRLLWSLAKFQVKDPRILTPVFNRCLTLHQDFFSDPMGGEEIEEIFDVFGPSFCPPLYQLYMSRGNSV	not soluble
MSVAGLKKQFHKATQKVSEKVGGAEGTKLDDDFKEMERKVDVTSRAVMEIMTKTIEYLQPNPASRAKLSMINTMSKIRGQEKGPGYPQAEALLAEAMLKFGRELGDDCNFGPALGEVGEAMRELSEVKDSLDIEVKQNFIDPLQNLHDKDLREIQHHLKKLEGRRLDFDYKKKRQGKIPDEELRQALEKFDESKEIAESSMFNLLEMDIEQVSQLSALVQAQLEYHKQAVQILQQVTVRLEERIRQASSQPRREYQPKPRMSLEFPTGDSTQPNGGLSHTGTPKPSGVQMDQPCCRALYDFEPENEGELGFKEGDIITLTNQIDENWYEGMLHGHSGFFPINYVEILVALPH	soluble
TEEPDFTALCQKLKIPDHVRERAWLTWEKVSSVDGVLGGYIQKKKELWGICIFIAAVDLDEMSFTFTELQKNIEISVHKFFNLLKEIDTSTKVDNAMSRLLKKYDVLFALFSKLERTCELIYLTQPSSSISTEINSALVLKVSWITFLLAKGEVLQMEDDLVISFQLMLCVLDYFIKLSPPMLLKEPYKTAVIPINGSPRTPRRGQNRSARIAKQLENDTRIIEVLCKEHECNIDEVKNVYFKNFIPFMNSLGLVTSNGLPEVENLSKRYEEIYLKNKDLDARLFLDHDKTLQTDSIDSFETQR	soluble
MGSDKIHHHHHHMTLDNHHCVQLVPLFEKLAEQDLTKVEKIVEHKKIKKGEIIISPDKEPLLVIVAQGALKISQLSQSGKEQLLRIIEAGDYEGEGALLGVTNGQLYGQAMIDSTICFLRQSDFETLLTTYPSLSLQLLKLNAKKYLAAEHQAGFLALDDVEARLAHYFLNLSATSDSIYFEIPMKLKELANYIGTSPETISRKIKVFEENKIISRQGRMIKLLDKEKLEDDFA	not soluble
MFAKVHPAEDVKSGNTGSCHDLVRYLEKETGEGQRFFSHTEQDISPERVIMDIDGNKKALGANDAKFFMLSLNPSQSEQMHLIGRKVDDFKELTPQEKKEVFQKLEAFTRSAMDEYALNFGRDNIRGGQDLMYYARVETERSYHPEDEEVKQGIARIGEPKPGLNLHVHVIVSRKSLDGKVKLSPGAKSAGNTWELEGRGTVKRGFSHEGWKVRVQECFNRKFDYQA	not soluble
MGHHHHHHSHMLREPGDPEKLGEFLQKDNISVHYFCLILSSKLPQRGQSNRGSMDFCLKTSKRRQPGLLGRSALCARKRELLSTARRISASETSICLVAKKGVAFHNFLESTNHFVTNIAQHRTSNMGMWGRKAASYVVKTYPNRVLRTSRARVVVKPSTTASAYRNMPTHQQSISSNVHSVTIERVSSRNAENGNPYSRQEVVPHSVCYVRIPRNPQGLLLS	not soluble
